Test results from patent publication US20220332795A1 (ARO BIOTHERAPEUTICS, published 2022).
Substitutions are numbered along the chain they refer to.

B1: ABX1100 (designed binder)
chain: MLPAPKNLVVSRVTEDSARLSWTAPDAAFDSFYIAYAEPRPDGEAILLQVPGSCRSYDLTGLKPGTEYSVLIHGVKGGLLSSPLTAIFTT
modifications: siRNA pair with linker (attachment residue not stated for this molecule)
notes: FN3 domain-siRNA conjugate; also called CD71 FN3 domain siRNA conjugate
B2: SEQ ID NO 268 (designed binder, not shown: small tags and cut ends)
chain: MLPAPKNLVVSRVTEDSARLSWTAPDAAFDSFYIAYAEPRPDGEAIYLEVPGSERSYDLTGLKPGTEYSVLIHGVKGGLLSSPLFTT
B3: SEQ ID NO 270 (designed binder, not shown: small tags and cut ends)
chain: MLPAPKNLVVSRVTEDSARLSWTAPDAAFDSFAIEYCETKMCGEAIVLTVPGSERSYDLTGLKPGTEYRVPIPGVKGGTASLPLSAIFTT
B4: SEQ ID NO 203 (designed binder, not shown: small tags and cut ends)
chain: MLPAPKNLVVSRVTEDSARLSWTAPDAAFDSFFIGYLEPQPPGEAIVLLVPGSERSYDLTGLKPGTEYNVTIQGVKGGFPSVPLAAFFTT
B5: SEQ ID NO 204 (designed binder, not shown: small tags and cut ends)
chain: MLPAPKNLVVSRVTEDSARLSWTAPDAAFDSFFIGYLEPQPPGEAILLWVPGSERSYDLTGLKPGTEYNVTIQGVKGGFPSQFTT
B6: SEQ ID NO 232 (designed binder, not shown: small tags and cut ends)
chain: B5 chain with L47Y, W49D, Q82T
B7: SEQ ID NO 205 (designed binder, not shown: small tags and cut ends)
chain: MLPAPKNLVVSRVTEDSARLSWTAPDAAFDSFFIGYLEPQPPGEAILLGVPGSERSYDLTGLKPGTEYNVTIQGVKGGFPSMPLHPLVALFTT
B8: SEQ ID NO 208 (designed binder, not shown: small tags and cut ends)
chain: B4 chain with L49A, V82Y, A85V, F87A
B9: SEQ ID NO 210 (designed binder, not shown: small tags and cut ends)
chain: B4 chain with V47N, L49Q, V82F, A85S, F87V
B10: SEQ ID NO 216 (designed binder, not shown: small tags and cut ends)
chain: MLPAPKNLVVSRVTEDSARLSWTAPDAAFDSFYIAYAEPRPDGEAISLSVPGSERSYDLTGLKPGTEYSVLIHGVKGGLLSSPPKFTT
B11: SEQ ID NO 238 (designed binder, not shown: small tags and cut ends)
chain: B10 chain with A24T, S47R, S49Q, P84L, K85G
B12: SEQ ID NO 221 (designed binder, not shown: small tags and cut ends)
chain: MLPAPKNLVVSRVTEDSARLSWTAPDAAFDSFFIGYLEPQPPGEAIFLDVPGSERSYDLTGLKPGTEYNVTIQGVKGGFPSPLTAFFTT
B13: SEQ ID NO 222 (designed binder, not shown: small tags and cut ends)
chain: B4 chain with L49D, V82H, F87A
B14: SEQ ID NO 223 (designed binder, not shown: small tags and cut ends)
chain: B4 chain with V47G, L49A, A85Q, F87N
B15: SEQ ID NO 231 (designed binder, not shown: small tags and cut ends)
chain: B4 chain with V47H, L49Y, V82D, A85D, F87V
B16: SEQ ID NO 235 (designed binder, not shown: small tags and cut ends)
chain: B4 chain with V47Q, L49T, V82L, A85S, F87D

biological target: T1, human CD71 on cells (human, UniProt P02786 1-760); experiment: Membrane Proteome Array, flow cytometry on QT6 cells
T1 construct: whole, on cells; also called the receptor
T1 sequence (P02786 whole entry): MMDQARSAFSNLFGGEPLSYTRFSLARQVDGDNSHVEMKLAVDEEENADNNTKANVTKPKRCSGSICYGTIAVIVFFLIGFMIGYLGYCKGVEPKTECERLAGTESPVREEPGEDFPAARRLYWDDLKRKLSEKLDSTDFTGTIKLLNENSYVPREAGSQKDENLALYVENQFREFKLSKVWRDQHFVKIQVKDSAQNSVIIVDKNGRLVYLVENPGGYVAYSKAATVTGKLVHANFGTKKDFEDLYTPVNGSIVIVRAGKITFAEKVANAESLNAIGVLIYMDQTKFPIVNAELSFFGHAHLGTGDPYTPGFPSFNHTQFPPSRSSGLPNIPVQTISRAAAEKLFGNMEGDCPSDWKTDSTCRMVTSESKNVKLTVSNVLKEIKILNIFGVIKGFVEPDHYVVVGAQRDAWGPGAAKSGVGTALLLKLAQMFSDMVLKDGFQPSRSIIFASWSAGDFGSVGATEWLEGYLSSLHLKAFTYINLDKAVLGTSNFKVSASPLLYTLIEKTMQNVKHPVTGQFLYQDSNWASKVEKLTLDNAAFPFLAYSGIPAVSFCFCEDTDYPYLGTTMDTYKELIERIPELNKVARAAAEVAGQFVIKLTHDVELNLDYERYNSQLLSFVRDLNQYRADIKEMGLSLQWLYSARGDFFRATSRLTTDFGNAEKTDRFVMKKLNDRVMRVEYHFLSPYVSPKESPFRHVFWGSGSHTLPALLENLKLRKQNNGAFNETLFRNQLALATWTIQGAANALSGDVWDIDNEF

Q: Does B1 bind?
A: binds

biological target: T2, CD71 apical domain (human, UniProt P02786 189-383, limits assumed); experiment: solution ELISA screen, signal ratio to HSA control
T2 construct: domain: apical domain
T2 sequence (P02786 189-383 limits assumed): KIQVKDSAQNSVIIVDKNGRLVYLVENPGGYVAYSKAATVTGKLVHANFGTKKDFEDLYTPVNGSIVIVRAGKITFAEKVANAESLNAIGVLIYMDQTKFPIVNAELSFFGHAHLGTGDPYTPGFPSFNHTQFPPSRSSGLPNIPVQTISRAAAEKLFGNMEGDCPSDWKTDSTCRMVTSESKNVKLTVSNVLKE

Q: How did the “apical domain:HSA” value turn out when B2 was run?
A: 0.8 ratio

Q: For B3, which “apical domain:HSA” value is on record?
A: 101 ratio

Q: For B4, which “apical domain:HSA” value is on record?
A: 219 ratio

Q: Which “apical domain:HSA” value does the source give for B5 here?
A: 317 ratio

Q: How did the “apical domain:HSA” value turn out when B6 was run?
A: 1.3 ratio

Q: Which “apical domain:HSA” value does the source give for B7 here?
A: 1 ratio

Q: With B8 as the binder, how does the “apical domain:HSA” value read?
A: 226 ratio

Q: How did the “apical domain:HSA” value turn out when B9 was run?
A: 85 ratio

Q: Which “apical domain:HSA” value does the source give for B10 here?
A: 0.7 ratio

Q: Which “apical domain:HSA” value does the source give for B11 here?
A: 1.1 ratio

Q: Which “apical domain:HSA” value does the source give for B12 here?
A: 0.5 ratio

Q: Which “apical domain:HSA” value does the source give for B13 here?
A: 69 ratio

Q: For B14, which “apical domain:HSA” value is on record?
A: 197 ratio

Q: For B15, which “apical domain:HSA” value is on record?
A: 331 ratio

Q: For B16, which “apical domain:HSA” value is on record?
A: 70.1 ratio

biological target: T3, human CD71 extracellular domain (human, UniProt P02786 89-760, biotinylated); experiment: solution ELISA screen, signal ratio to HSA control
T3 construct: extracellular domain; also called hCD71; huCD71 ECD
T3 sequence (P02786 other isoform, or with tags, fused parts or gaps): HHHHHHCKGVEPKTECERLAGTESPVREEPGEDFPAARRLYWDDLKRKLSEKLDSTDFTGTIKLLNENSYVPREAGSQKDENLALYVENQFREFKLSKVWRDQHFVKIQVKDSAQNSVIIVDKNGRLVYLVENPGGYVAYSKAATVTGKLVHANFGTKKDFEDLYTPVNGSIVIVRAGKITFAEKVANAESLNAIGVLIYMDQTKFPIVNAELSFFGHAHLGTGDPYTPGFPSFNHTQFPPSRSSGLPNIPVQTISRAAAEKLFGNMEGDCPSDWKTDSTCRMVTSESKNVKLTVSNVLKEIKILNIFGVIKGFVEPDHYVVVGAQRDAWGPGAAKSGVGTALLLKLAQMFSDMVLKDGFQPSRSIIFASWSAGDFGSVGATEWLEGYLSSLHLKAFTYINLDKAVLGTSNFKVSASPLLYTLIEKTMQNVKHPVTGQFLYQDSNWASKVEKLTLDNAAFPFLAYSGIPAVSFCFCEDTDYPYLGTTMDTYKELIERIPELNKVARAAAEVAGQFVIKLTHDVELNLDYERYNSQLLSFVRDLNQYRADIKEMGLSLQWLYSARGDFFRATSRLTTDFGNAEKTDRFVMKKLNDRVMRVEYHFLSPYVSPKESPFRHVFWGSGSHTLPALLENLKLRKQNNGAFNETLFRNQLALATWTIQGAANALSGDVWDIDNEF

Q: Which “hCD71:HSA” value does the source give for B2 here?
A: 23.6 ratio

Q: Which “hCD71:HSA” value does the source give for B3 here?
A: 51.6 ratio

Q: For B4, which “hCD71:HSA” value is on record?
A: 91.6 ratio

Q: Which “hCD71:HSA” value does the source give for B5 here?
A: 164 ratio

Q: How did the “hCD71:HSA” value turn out when B6 was run?
A: 14.3 ratio

Q: With B7 as the binder, how does the “hCD71:HSA” value read?
A: 18.1 ratio

Q: How did the “hCD71:HSA” value turn out when B8 was run?
A: 184 ratio

Q: Which “hCD71:HSA” value does the source give for B9 here?
A: 49.7 ratio

Q: B10 was tested. Which “hCD71:HSA” value did it give?
A: 21.6 ratio

Q: B11 was tested. Which “hCD71:HSA” value did it give?
A: 31 ratio

Q: For B12, which “hCD71:HSA” value is on record?
A: 16.4 ratio

Q: B13 was tested. Which “hCD71:HSA” value did it give?
A: 94.5 ratio

Q: How did the “hCD71:HSA” value turn out when B14 was run?
A: 105 ratio

Q: B15 was tested. Which “hCD71:HSA” value did it give?
A: 112 ratio

Q: With B16 as the binder, how does the “hCD71:HSA” value read?
A: 39.5 ratio

biological target: T2, CD71 apical domain; experiment: solution ELISA screen (luminescence)

Q: B2 was tested. Which RLU did it give?
A: 94800 RLU

Q: How did the RLU turn out when B3 was run?
A: 6.49e+06 RLU

Q: With B4 as the binder, how does the RLU read?
A: 5.69e+06 RLU

Q: Which RLU does the source give for B5 here?
A: 6.35e+06 RLU

Q: With B6 as the binder, how does the RLU read?
A: 95400 RLU

Q: How did the RLU turn out when B7 was run?
A: 150000 RLU

Q: Which RLU does the source give for B8 here?
A: 3.7e+06 RLU

Q: Which RLU does the source give for B9 here?
A: 4.12e+06 RLU

Q: For B10, which RLU is on record?
A: 142000 RLU

Q: With B11 as the binder, how does the RLU read?
A: 112000 RLU

Q: For B12, which RLU is on record?
A: 31800 RLU

Q: How did the RLU turn out when B13 was run?
A: 1.07e+06 RLU

Q: With B14 as the binder, how does the RLU read?
A: 3.6e+06 RLU

Q: How did the RLU turn out when B15 was run?
A: 6.83e+06 RLU

Q: For B16, which RLU is on record?
A: 1.67e+06 RLU

biological target: T3, human CD71 extracellular domain; experiment: solution ELISA screen (luminescence)

Q: B2 was tested. Which RLU did it give?
A: 2.77e+06 RLU

Q: B3 was tested. Which RLU did it give?
A: 3.32e+06 RLU

Q: B4 was tested. Which RLU did it give?
A: 2.38e+06 RLU

Q: With B5 as the binder, how does the RLU read?
A: 3.29e+06 RLU

Q: With B6 as the binder, how does the RLU read?
A: 1.08e+06 RLU

Q: For B7, which RLU is on record?
A: 2.81e+06 RLU

Q: B8 was tested. Which RLU did it give?
A: 3e+06 RLU

Q: B9 was tested. Which RLU did it give?
A: 2.41e+06 RLU

Q: For B10, which RLU is on record?
A: 4.15e+06 RLU

Q: For B11, which RLU is on record?
A: 3.07e+06 RLU

Q: With B12 as the binder, how does the RLU read?
A: 966000 RLU

Q: How did the RLU turn out when B13 was run?
A: 1.47e+06 RLU

Q: How did the RLU turn out when B14 was run?
A: 1.93e+06 RLU

Q: Which RLU does the source give for B15 here?
A: 2.32e+06 RLU

Q: B16 was tested. Which RLU did it give?
A: 943000 RLU
